Consider 1 molecule from patent US20230045151A1, “COMPOSITIONS AND METHODS” (MONASH UNIVERSITY, priority 2020, published 2023).

This test concerns CCL20. The test is described as follows: In vitro stimulation of lung cells enriched for airway epithelial cells, chemokine release. Format: cell-based, mouse. The settings on record: LPS 10 μg/ml, 24 hours; EGF 100 ng/ml, amphiregulin 500 ng/ml or gefitinib 0.16 μM; lower efficacy than PCS. The protocol: Mice were euthanized by CO2 inhalation, instilled with a 1.5 ml dispase II (Sigma-Aldrich) intratracheally, followed by intratracheal injection of 0.5 ml 1% low melting point agarose (Sigma-Aldrich). Lungs were then covered with ice for 3 min, removed and placed in a 15 ml falcon tube with 2 ml of dispase II, and incubated for 45 min with gentle agitation. This was followed by mechanical disruption of the lung lobes using forceps in DMEM supplemented with DNAse I (Sigma-Aldrich, 1U/ml), filtration through 70- and 40-μM cell strainers (Falcon®, Corning) and lysis of erythrocytes using red blood cell lysing buffer (BD Biosciences). Lung cells were plated in a flat-bottom 24-well or 96-well plates (Costar) coated with fibronectin (Sigma-Aldrich, 10 μg/ml) at the density of 1 mln or 0.2 mln cells/well, respectively.
5% CO2, after which the supernatant was collected and stored at −20° C. until further use.

B1: amphiregulin: low affinity EGFR ligand (protein, UniProt P15514 101-187, looked up)
Amphiregulin: SVRVEQVVKPPQNKTESENTSDKPKRKKKGGKNGKNRRNRKKKNPCNAEFQNFCIHGECKYIEHLEAVTCKCQQEYFGERCGEKSMK
modifications: Amphiregulin
Consider B1, for which the “CCL20 production by lung cells stimulated with LPS” value is on record as “selective reduction”.
